Test results from paper PMC7925086.

Target: Leishmania RNA virus 1 isolate LRV1-4 major capsid protein (Leishmania RNA virus 1 (isolate LRV1-4, from Leishmania guyanensis strain M5313))
Test: cryo-EM structure; single-particle reconstruction of purified LRV1 virus-like particles, 0.16 mg/ml, in 20 mM sodium phosphate pH 7.4, 300 mM NaCl, 5 mM beta-mercaptoethanol; icosahedral symmetry; 3.65 Å

Q: How did the stoichiometry N turn out when “Leishmania RNA virus 1 isolate LRV1-4 major capsid protein (natural protein)” was run?
A: The stoichiometry N was 120 copies.
